# Measurements as given in patent publication US20230203203A1 (YISSUM RESEARCH DEVELOPMENT COMPANY OF THE HEBREW …, published 2023).
# Square brackets hold non-standard residues; d marks the D form. Ends that are not written are not given here. AEEA = NCCOCCOCC(=O)O
# B1: phage presenting peptide PEL (other)
# chain: PELDSKPYFPPL
# notes: not shown: phage coat protein pVIII flanking the inserted peptide
# B2: phage presenting peptide 4 (PSS) (other)
# chain: PSSNLESTPLSLL
# notes: as for B1
# B3: phage presenting peptide 14 (SSL) (peptide, not shown: large carriers)
# chain: SSLMTTQLIATSI
# B4: phage presenting peptide SLE (other)
# chain: SLESSPMAQLPQ
# notes: as for B1
# B5: phage presenting the … (SEQ ID NO: 9) peptide on coat protein VIII (peptide, part only; not given: phage coat protein VIII, part only)
# chain, part: LQIQSWSSSP
# B6: phage presenting peptide ELV (other)
# chain: ELVTASMPRPNN
# notes: as for B1
# B7: phage presenting peptide SEL (other)
# chain: SELRSTPLLVPS
# notes: as for B1
# B8: LQI tetramer peptide, (LQIQSWSSSP-Doa-Doa-C)4-(Mpa)4-Lys2-Lys-beta-Ala-Lys(Biotin)-beta-Ala-OH (peptide)
# peptide: LQIQSWSSSP[AEEA][AEEA]C
# modifications: also: tetramer: four chains joined via Cys-Mpa to branched Lys core
# notes: Branched tetramer, MW 7.6 kDa; Detected with SA-Cy3 after washing ('tetramer alone' assay); also called tetrameric LQI; biotinylated LQI-tetramer
# B9: phage presenting peptide 27 (LAT) (other)
# chain: LATTHMVFSPDH
# notes: as for B1
# B10: phage presenting peptide 1.1 (KFP) (other)
# chain: KFPDLDSRRLPHMSL
# notes: detected with PE-conjugated anti-M13 antibody; not shown: phage coat protein pVIII flanking the inserted peptide
# Experiments:
# human CD177 [1] = target: T1, human CD177 (human, UniProt Q8N6Q3 22-408); experiment: flow cytometry on WBCs of healthy volunteers, anti-M13-PE (FIG. 13I)
# T1 construct: whole, on cells; On circulating human neutrophils of donors and patients; also called CD177 (on human neutrophils)
# T1 sequence (looked up): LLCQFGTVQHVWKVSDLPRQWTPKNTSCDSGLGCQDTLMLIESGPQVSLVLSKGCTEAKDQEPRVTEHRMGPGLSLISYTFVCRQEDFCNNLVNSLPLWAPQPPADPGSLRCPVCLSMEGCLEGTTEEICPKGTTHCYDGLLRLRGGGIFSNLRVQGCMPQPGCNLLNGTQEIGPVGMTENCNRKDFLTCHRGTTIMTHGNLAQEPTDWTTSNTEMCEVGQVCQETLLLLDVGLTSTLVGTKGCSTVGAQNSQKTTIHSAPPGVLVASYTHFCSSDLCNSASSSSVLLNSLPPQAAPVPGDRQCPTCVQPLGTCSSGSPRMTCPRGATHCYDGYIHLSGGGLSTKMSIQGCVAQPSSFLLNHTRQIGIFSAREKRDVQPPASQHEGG
# Method: In order to assess the binding efficiency of each peptide to human circulating neutrophils, and the level of variability between individuals, the individual binding of each peptide to 5-8 healthy volunteers was assessed. Blood withdrawn from healthy volunteers was overlaid on 3% dextran in 0.9% NaCl in a 1:1 ratio and left at RT for 25 min to allow erythrocyte sedimentation. Residual RBCs were lysed by adding water for 30 sec and stopped by adding PBS×5 supplemented with 2.5% BSA. Following red blood cell lysis, 0.5×10⁶ WBCs were incubated with each phage separately. The level of binding of the different phages to the neutrophils was then assessed by flow cytometry. Neutrophils were identified based on a CD66b⁺ SSC^high gating, and the level of phage binding was assessed using PE-conjugated anti-M13 antibody for specific phage staining.
# murine CD177 [2] = target: T2, murine CD177 (mouse, UniProt Q8R2S8 22-817); experiment: flow cytometry on WBC of 4T1 tumor bearing mice, anti-M13-PE; target named as neutrophils
# T2 construct: whole, on cells; On murine neutrophils (HDN, TAN, circulating), on HEK293T cells ectopically expressing it, and from neutrophil lysate in the pull-down; also called mouse CD177; CD177 (on murine neutrophils)
# T2 sequence (looked up): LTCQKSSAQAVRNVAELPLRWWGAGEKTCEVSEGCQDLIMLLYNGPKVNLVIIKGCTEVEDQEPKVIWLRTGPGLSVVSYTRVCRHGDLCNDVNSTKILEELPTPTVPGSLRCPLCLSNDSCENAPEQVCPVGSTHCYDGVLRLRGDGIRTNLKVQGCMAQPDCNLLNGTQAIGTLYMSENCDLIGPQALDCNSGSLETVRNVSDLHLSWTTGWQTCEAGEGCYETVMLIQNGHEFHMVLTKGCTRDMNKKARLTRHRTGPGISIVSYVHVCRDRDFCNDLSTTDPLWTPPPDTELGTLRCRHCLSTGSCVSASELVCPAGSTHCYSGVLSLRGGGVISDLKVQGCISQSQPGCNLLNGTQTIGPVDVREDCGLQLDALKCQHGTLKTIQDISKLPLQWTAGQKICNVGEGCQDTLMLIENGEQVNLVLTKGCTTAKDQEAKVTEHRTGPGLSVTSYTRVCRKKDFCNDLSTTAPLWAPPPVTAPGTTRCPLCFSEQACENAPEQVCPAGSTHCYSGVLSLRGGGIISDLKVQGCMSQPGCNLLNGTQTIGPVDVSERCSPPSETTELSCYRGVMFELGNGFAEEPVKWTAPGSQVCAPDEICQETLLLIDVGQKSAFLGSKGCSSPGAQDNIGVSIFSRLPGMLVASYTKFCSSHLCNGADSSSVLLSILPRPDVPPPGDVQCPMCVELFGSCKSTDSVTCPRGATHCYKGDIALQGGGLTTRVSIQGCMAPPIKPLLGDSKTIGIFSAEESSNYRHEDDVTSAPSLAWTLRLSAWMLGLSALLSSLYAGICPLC
# human CD177 [3] = target: T1, human CD177; experiment: negative control on WBCs of a lung cancer patient, flow cytometry
# murine CD177 [4] = target: T2, murine CD177; experiment: titration on purified murine HDNs, flow cytometry; target named as neutrophils
# murine CD177 [5] = target: T2, murine CD177; experiment: pull-down from murine neutrophil lysate with biotinylated LQI-tetramer on streptavidin-agarose beads, mass spectrometry
# Method: After washing, the bound proteins were eluted by incubating the beads for 10 min at 95° C. in protein sample buffer containing beta-mercaptoethanol. The gel was stained using silver staining. Lanes of the eluates of peptide- and control-beads were cut out and analyzed by mass spectrometry.
Binder,"percent of circulating neutrophils bound, average of donors (human CD177 [1])",further results
B1,~60%,–
B2,~60%,–
B3,60%,–
B4,~60%,–
B5,–,percent of neutrophils bound (murine CD177 [2]): 95%
B6,~60%,–
B7,~60%,–
B8,–,binding result (human CD177 [3]): no binding; Kd (murine CD177 [4]): 3.3 µM; peptide/control ratio (murine CD177 [5]): 7.89
B9,~60%,–
B10,~60%,–
